No end group written: not given here. *: point of attachment. MTX = methotrexate, its gamma-carboxylic acid amide-linked to the peptide N-terminus, CN(Cc1cnc2nc(N)nc(N)c2n1)c1ccc(C(=O)N[C@@H](CCC(=O)*)C(=O)O)cc1
Columns and labels:
Assay in all cases: cell-based or functional assay
[1] = target: LFA-1 on mouse L1210 T-cells (mouse, UniProt P24063 24-1162; P11835 24-771)
[2] = target: LFA-1 receptor on human Molt-3 T-cells (human, UniProt P20701 26-1170; P05107 23-769)
[3] = target: dihydrofolate reductase enzyme (DHFR)

LFA-1 receptor on human Molt-3 T-cells, sequence (P20701 26-1170, chain 1 of 2): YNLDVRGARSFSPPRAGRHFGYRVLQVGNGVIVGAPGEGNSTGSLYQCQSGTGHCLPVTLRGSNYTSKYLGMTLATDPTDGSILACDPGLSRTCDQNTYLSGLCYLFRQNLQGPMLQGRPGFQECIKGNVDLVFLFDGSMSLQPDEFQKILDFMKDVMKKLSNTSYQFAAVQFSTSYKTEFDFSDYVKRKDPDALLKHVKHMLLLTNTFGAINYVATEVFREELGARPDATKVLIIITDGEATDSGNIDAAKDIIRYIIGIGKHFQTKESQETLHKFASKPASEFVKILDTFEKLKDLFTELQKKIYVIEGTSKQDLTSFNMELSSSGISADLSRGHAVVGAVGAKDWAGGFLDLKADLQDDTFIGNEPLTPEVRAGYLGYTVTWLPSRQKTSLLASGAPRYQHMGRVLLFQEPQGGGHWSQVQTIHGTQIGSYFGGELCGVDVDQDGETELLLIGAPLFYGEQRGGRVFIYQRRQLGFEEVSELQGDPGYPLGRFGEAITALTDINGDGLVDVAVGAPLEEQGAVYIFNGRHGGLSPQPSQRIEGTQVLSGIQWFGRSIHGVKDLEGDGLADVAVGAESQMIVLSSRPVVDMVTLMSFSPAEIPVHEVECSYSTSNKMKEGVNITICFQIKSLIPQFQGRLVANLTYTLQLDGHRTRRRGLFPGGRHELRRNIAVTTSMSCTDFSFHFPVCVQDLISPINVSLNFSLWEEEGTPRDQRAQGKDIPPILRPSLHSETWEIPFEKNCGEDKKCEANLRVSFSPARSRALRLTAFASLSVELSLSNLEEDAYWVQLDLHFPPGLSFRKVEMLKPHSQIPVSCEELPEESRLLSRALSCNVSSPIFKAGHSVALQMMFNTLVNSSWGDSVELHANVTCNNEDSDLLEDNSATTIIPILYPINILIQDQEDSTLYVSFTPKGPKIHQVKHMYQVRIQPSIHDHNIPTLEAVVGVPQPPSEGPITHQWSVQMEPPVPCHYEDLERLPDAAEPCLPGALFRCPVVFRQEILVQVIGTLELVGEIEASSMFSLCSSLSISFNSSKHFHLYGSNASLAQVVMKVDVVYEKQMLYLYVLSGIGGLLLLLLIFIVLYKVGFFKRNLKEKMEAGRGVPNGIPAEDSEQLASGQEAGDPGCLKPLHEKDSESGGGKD
LFA-1 receptor on human Molt-3 T-cells, sequence (P05107 23-769, chain 2 of 2): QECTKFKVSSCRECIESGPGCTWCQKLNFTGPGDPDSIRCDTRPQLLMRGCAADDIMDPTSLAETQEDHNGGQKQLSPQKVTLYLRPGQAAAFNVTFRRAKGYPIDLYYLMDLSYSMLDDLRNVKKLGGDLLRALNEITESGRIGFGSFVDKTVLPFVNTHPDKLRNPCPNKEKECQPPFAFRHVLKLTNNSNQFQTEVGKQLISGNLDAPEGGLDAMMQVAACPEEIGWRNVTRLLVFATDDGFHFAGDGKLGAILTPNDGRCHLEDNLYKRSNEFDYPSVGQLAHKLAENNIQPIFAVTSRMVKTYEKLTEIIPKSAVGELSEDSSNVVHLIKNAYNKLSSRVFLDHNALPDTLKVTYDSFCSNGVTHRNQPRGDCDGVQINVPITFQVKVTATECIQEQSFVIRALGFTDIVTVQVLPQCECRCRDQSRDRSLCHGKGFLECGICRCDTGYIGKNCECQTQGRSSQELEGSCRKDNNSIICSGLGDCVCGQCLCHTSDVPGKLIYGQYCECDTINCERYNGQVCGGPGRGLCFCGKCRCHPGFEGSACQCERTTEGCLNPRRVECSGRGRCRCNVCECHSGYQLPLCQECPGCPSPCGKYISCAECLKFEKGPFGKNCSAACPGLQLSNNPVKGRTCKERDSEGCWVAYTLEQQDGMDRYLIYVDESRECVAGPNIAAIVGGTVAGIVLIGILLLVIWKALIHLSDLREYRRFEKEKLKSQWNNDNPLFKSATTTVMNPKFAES
LFA-1 on mouse L1210 T-cells, sequence (P24063 24-1162, chain 1 of 2): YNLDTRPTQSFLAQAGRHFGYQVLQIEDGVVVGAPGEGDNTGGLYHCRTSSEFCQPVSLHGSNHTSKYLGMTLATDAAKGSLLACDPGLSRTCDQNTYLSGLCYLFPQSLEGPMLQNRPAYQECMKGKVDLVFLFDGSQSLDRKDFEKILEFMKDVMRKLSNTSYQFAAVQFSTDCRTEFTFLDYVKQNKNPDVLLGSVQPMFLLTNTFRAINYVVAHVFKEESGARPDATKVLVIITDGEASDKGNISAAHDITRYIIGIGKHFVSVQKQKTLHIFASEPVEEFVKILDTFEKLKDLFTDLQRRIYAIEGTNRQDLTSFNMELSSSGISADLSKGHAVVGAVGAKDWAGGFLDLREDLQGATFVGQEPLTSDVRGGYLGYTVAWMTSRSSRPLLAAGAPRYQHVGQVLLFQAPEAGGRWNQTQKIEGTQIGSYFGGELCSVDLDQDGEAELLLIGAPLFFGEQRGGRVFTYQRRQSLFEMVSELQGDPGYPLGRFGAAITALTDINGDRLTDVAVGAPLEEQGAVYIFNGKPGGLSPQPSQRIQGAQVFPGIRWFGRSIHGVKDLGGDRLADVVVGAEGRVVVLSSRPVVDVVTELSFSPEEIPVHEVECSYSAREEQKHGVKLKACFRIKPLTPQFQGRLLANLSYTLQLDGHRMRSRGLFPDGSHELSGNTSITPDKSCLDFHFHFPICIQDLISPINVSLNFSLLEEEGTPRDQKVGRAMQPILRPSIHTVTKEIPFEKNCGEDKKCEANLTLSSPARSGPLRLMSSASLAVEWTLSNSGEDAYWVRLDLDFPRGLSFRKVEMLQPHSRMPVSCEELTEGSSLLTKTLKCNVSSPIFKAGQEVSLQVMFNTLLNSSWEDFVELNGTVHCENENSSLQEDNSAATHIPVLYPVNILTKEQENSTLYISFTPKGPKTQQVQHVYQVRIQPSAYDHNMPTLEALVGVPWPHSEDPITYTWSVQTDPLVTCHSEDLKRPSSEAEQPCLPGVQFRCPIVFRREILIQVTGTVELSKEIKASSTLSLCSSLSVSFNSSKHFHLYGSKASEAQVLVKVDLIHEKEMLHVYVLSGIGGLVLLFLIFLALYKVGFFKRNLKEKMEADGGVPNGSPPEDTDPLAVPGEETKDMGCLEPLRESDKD
LFA-1 on mouse L1210 T-cells, sequence (P11835 24-771, chain 2 of 2): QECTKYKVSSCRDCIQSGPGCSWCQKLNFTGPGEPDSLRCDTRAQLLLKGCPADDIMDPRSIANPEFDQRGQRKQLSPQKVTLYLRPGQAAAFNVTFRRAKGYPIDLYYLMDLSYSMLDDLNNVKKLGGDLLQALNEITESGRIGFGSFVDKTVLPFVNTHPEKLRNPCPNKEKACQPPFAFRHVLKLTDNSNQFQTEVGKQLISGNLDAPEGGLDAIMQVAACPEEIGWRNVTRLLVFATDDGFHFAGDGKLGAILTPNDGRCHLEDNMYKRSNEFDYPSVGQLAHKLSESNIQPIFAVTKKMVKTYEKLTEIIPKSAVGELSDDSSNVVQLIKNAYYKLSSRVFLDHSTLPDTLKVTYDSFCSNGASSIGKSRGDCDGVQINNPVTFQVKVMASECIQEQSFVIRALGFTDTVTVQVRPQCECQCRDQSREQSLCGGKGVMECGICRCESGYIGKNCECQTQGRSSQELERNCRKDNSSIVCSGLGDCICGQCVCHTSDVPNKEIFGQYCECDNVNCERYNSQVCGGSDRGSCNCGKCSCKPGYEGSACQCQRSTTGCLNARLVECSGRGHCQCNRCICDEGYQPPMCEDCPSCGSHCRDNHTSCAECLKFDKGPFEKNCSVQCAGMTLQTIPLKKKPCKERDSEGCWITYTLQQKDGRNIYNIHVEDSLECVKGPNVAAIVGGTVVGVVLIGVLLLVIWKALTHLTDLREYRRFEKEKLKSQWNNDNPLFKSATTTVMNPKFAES

| Binder | IC50 in micromolar, growth inhibition, L1210 mouse leukemia cells [1] | IC50 in micromolar, cytotoxicity, Molt-3 T-cells [2] | Km relative to MTX (Dixon plot, DHFR inhibition assay) [3] |
| --- | --- | --- | --- |
| {MTX}-VILPRG-NH2 [MTX-VILPRG] | 0.7 µM | 9.12 µM |  |
| {MTX}-LPRGGSVLVT (also: cyclic peptide, ring closure not given here) [MTX-cIBR conjugate (methotrexate-cyclo-Leu Pro Arg Gly Gly Ser Val Leu Val Thr)] | 5.5 µM | 2.75 µM | ~15 fold |
| {MTX}-PRGGSV-NH2 [MTX-PRGGSV] | 1.6 µM | 5.13 µM |  |
| {MTX}-QTSVSPSKVI (also: cyclic peptide, ring not given here) [MTX-cIBL conjugate] | 9.14 µM | 2.68 µM | ~4 fold |
